Blank lines part the entries; values can stand above or below the binder they belong to.
Key:
[1] = target: recombinant IL12 (Peprotech) (human) (UniProt P29460); experiment: SPR; SPR binding to immobilized IL12; kinetics post-digest with Matriptase
[2] = target: recombinant IL12 (Peprotech) (human) (UniProt P29460); experiment: SPR; SPR binding to immobilized IL12; kinetics post-digest with Matriptase; ka near instrument detection limit

Sequence of recombinant IL12 (Peprotech) (human) (P29460 23-328 limits assumed, chain 1 of 2): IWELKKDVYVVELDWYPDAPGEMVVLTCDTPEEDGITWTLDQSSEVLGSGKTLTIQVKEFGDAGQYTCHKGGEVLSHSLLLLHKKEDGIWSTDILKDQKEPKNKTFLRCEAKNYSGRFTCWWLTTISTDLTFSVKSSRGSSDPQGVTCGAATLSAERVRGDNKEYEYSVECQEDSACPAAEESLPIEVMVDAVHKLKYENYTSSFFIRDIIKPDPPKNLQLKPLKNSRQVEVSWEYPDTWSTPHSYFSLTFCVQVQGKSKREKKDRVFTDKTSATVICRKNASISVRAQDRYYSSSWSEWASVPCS
Sequence of recombinant IL12 (Peprotech) (human) (chain, as listed by the source limits assumed, chain 2 of 2): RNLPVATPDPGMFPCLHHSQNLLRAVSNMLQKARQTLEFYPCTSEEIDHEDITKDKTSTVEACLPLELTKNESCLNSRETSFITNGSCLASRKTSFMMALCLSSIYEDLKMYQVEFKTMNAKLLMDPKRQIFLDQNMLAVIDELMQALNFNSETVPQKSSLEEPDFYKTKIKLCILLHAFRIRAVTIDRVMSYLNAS

Kd [1]: 1.47 pM | koff [1]: 6.48e-05 s⁻¹ | kon [2]: 4.19e+07 M⁻¹ s⁻¹
B1: v32909 digested with Matriptase (Fc fusion)
chain 1: SANAGGGGSGGGGSQVQLVESGGGVVQPGRSLRLSCAASGFTFSSYGMHWVRQAPGKGLEWVAFIRYDGSNKYYADSVKGRFTISRDNSKNTLYLQMNSLRAEDTAVYYCKTHGSHDNWGQGTMVTVSSGGGGSMSGR
chain 2: SANAGGGGSGGGGSQSVLTQPPSVSGAPGQRVTISCSGSRSNIGSNTVKWYQQLPGTAPKLLIYYNDQRPSGVPDRFSGSKSGTSASLAITGLQAEDEADYYCQSYDRYTHPALLFGTGTKVTVL

Kd [1]: 5.37 pM | koff [1]: 4.68e-05 s⁻¹ | kon [2]: 8.65e+06 M⁻¹ s⁻¹
B2: v32910 digested with Matriptase (Fc fusion)
chain: SANAGGGGSGGGGSQVQLVESGGGVVQPGRSLRLSCAASGFTFSSYGMHWVRQAPGKGLEWVAFIRYDGSNKYYADSVKGRFTISRDNSKNTLYLQMNSLRAEDTAVYYCKTHGSHDNWGQGTMVTVSSGGGGSGGGSGGGSGGGGSGGGGSQSVLTQPPSVSGAPGQRVTISCSGSRSNIGSNTVKWYQQLPGTAPKLLIYYNDQRPSGVPDRFSGSKSGTSASLAITGLQAEDEADYYCQSYDRYTHPALLFGTGTKVTVL

From patent US20230122079A1
